T1: Cathepsin G (CATG) (human, UniProt P08311 21-244)
T1 sequence: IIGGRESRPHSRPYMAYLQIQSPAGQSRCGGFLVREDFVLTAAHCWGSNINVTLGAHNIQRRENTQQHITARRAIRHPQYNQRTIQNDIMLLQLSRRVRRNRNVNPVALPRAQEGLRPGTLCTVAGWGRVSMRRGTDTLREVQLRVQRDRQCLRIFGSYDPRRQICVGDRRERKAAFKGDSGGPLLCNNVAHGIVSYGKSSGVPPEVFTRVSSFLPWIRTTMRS

T2: Granzyme A (GzmA) (human, UniProt P12544 29-262)
T2 sequence: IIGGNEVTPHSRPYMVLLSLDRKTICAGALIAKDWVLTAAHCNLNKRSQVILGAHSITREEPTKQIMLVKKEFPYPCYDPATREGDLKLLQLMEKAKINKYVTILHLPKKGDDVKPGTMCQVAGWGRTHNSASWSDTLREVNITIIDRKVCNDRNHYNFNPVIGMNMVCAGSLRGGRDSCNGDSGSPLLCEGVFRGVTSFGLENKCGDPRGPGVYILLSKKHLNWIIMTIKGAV


Experiments:
Granzyme B (GzmB) [1] = biological target: T3, Granzyme B (GzmB) (human, UniProt P10144 21-247); assay: pull-down
Cathepsin G (CATG) [2] = biological target: T1, Cathepsin G (CATG); assay: pull-down
Neutrophil elastase (NE) [3] = biological target: T4, Neutrophil elastase (NE) (human, UniProt P08246 30-267); assay: pull-down
Granzyme A (GzmA) [4] = biological target: T2, Granzyme A (GzmA); assay: pull-down
Pancreatic elastase (PE) = Pancreatic elastase (PE) (porcine, UniProt P00772 27-266); assay: pull-down
Granzyme B (GzmB) [5] = biological target: T3, Granzyme B (GzmB); assay: fluorescence polarization
Granzyme A (GzmA) [6] = biological target: T2, Granzyme A (GzmA); assay: fluorescence polarization
HuR (human antigen R) = HuR (human antigen R) (UniProt Q15717 1-326); assay: fluorescence polarization
Cathepsin G (CATG) [7] = biological target: T1, Cathepsin G (CATG); assay: fluorescence polarization
Neutrophil elastase (NE) [8] = biological target: T4, Neutrophil elastase (NE); assay: fluorescence polarization
Histone H1 = Histone H1 (UniProt P07305 1-194); assay: fluorescence polarization
Sequence of Histone H1 (P07305 whole entry): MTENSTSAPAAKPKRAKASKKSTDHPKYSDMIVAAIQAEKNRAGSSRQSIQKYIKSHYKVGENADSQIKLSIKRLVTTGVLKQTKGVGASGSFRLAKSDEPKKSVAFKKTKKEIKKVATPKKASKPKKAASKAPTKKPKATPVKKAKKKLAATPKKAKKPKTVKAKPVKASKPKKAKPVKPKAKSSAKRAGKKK

Sequence of HuR (human antigen R) (Q15717 whole entry): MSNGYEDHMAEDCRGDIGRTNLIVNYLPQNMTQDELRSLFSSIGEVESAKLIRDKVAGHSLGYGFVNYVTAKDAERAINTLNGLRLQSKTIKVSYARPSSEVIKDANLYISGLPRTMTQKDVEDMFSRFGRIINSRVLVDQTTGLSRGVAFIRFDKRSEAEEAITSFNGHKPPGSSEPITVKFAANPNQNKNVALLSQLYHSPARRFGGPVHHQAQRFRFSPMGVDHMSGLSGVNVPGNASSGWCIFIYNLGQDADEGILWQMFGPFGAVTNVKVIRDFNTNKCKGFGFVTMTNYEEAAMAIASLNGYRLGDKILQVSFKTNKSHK
T4 sequence (P08246 30-267): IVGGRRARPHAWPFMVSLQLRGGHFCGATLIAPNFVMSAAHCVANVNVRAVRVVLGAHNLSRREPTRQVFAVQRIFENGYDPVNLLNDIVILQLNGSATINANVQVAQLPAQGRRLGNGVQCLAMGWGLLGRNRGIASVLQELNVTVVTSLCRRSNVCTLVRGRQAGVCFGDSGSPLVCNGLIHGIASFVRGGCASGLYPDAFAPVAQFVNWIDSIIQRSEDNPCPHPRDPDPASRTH
T3 sequence (P10144 21-247): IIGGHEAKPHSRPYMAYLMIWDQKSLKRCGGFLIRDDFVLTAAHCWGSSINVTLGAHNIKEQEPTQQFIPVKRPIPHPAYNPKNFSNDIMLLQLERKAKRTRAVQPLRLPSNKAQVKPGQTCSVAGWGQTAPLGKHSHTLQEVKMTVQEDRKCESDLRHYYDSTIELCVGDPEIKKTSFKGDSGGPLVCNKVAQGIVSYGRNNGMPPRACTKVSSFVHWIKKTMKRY
Sequence of Pancreatic elastase (PE) (P00772 27-266): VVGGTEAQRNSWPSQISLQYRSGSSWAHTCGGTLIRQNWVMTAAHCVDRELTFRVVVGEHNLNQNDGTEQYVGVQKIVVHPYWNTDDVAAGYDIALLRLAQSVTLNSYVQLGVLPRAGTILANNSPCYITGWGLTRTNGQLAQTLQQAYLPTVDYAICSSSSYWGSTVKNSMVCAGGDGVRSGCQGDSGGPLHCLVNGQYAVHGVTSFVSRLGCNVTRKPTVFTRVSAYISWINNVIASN

Row | Binder | binding result (Granzyme B (GzmB) [1]) | binding result (Cathepsin G (CATG) [2]) | binding result (Neutrophil elastase (NE) [3]) | binding result (Granzyme A (GzmA) [4]) | binding result (Pancreatic elastase (PE)) | Kd (Granzyme B (GzmB) [5]) [µM] | Kd (Granzyme A (GzmA) [6]) [µM] | Kd (HuR (human antigen R)) [µM] | Kd (Cathepsin G (CATG) [7]) [µM] | Kd (Neutrophil elastase (NE) [8]) [µM] | Kd (Histone H1) [µM]
1 | TTTTTTTTTTTTTTTTTTTTTTTTT (ssDNA) [Oligo(dT)25 beads] | binds | binds | binds | binds | no binding | – | – | – | – | – | –
2 | UUUUUUUUUUUUUUUUUUUUUUUUUUUUUU (ssRNA) [rU(30)] | – | – | – | – | – | 0.159 | 0.232 | 0.121 | – | – | –
3 | UCUGUGAGUUGAACGCACACAUCACAAAGGA (ssRNA) [BB94 RNA] | – | – | – | – | – | 0.48 | 1.6 | 4.8 | – | – | –
4 | TTTTTTTTTTTTTTTTTTTTTTTTTTTTTT (ssDNA) [dT(30)] | – | – | – | – | – | 0.045 | 0.048 | – | – | – | –
5 | CCCAAGCUUAUUUAUUUAUUUAUUGCAGGUC (ssRNA) [AU RNA] | – | – | – | – | – | 0.651 | 0.401 | 0.492 | 0.165 | 0.602 | –
6 | TCTGTGAGTTGAACGCACACATCACAAAGGAG (ssDNA) [BB94 ssDNA] | – | – | – | – | – | 0.035 | 0.122 | – | 0.022 | 0.272 | 0.01
7 | BB94 dsDNA (dsDNA) DNA 1: TCTGTGAGTTGAACGCACACATCACAAAGGAG DNA 2: CTCCTTTGTGATGTGTGCGTTCAACTCACAGA | – | – | – | – | – | 0.161 | 0.12 | – | 0.035 | 0.607 | 0.009

Source: PMC4041364
